Data set [1] addresses T1, FumC (class II fumarase) (Methylotuvimicrobium alcaliphilum, UniProt G4SWR5). Kind of data set: coupled assay with NADP-dependent malic enzyme at […] nm. Particulars: 1 mM fumarate, 50 mM Tris-HCl pH 8.0, coupling enzyme present. The format is biochemical. Further details: full length (gene 1404 bp), His6-tagged, pET22b(+), E. coli BL21(DE3); homotetramer (184 kDa).
The target of data set [2] is T2, FumI (class I fumarase) (Methylotuvimicrobium alcaliphilum, UniProt G4T1T1).
T2 construct: gene fumA; full length, 507 residues, His6-tagged, pET22b(+), E. coli BL21(DE3); homodimer (130 kDa); aerobically purified, stabilised with iron-sulfur mixture; [4Fe-4S]
The data set is described as above. The format is biochemical. The settings on record: activator; 1 mM succinate, 1 mM fumarate, 50 mM Tris-HCl pH 8.5, 5 mM MgCl2; coupling enzyme present.

In data set [3] the target is T2, FumI (class I fumarase). In words: spectrophotometric hydration assay at […] nm, Hill fit. Particulars: 50 mM Tris-HCl pH 8.5, optimal conditions, aerobic; Hill n = 1.4 ± 0.2; read-out: Class I fumarase / S0.5. The format is biochemical.
Data set [4] has as its target T1, FumC (class II fumarase). The settings on record: read-out: Class II fumarase (FumС) / Km(S0.5*); 50 mM Tris-HCl pH 8.0; text b40 prints 0.10 ± 0.001 mM.
Substrate in data set [5]: O=C(O)C[C@H](O)C(=O)O
In words: purified protein.

Substrate in data set [6]: C/C(=C\C(=O)O)C(=O)O
Kind of data set: purified protein. The settings on record: 50 mM Tris-HCl pH 8.5, aerobic, Hill n = 1.4 ± 0.1, error in Table 1 printed ± 0.2. The format is biochemical, Methylotuvimicrobium alcaliphilum.

Where [7] appears, read: 50 mM Tris-HCl pH 8.5, Hill n = 2.1 ± 0.4.
The mark [8] stands for this setting: 50 mM Tris-HCl pH 8.5, aerobic, Hill n = 1.7 ± 0.1, error in text b33 ± 0.03.

Turning to `O=C(O)CC(O)(CC(=O)O)C(=O)O` [citrate], the “% reduction of activity at 1 mM” value on FumC (class II fumarase) [1] (1 mM citrate) is recorded as 50%.

With `C=C(OP(=O)(O)O)C(=O)O` [phosphoenolpyruvate], at FumC (class II fumarase) [1] (1 mM phosphoenolpyruvate), the “% reduction of activity at 1 mM” value came out at 30%.

Regarding `O=C(O)CCC(=O)O` [succinate], the “fold activity at 1 mM” value on FumI (class I fumarase) [2] is given as ~ 1.5 fold.

As for `O=C(O)/C=C/C(=O)O` [fumarate], the values for the Km on FumI (class I fumarase) [3] and at FumC (class II fumarase) [4] were 280 ± 40 µM and 110 ± 4 µM, respectively.

B1: FumC (class II fumarase) (Methylotuvimicrobium alcaliphilum 20Z) (protein)
chain: MTIGSSAGRIESDALGSIEVPADKYWGAQTQRSLHYFAIGDERLPRPLIRALGIVKRCAALSNIAQNKLDEKLGRAIVDAAQEVIDGALDEHFPLVIWQTGSGTQSNMNANEVIANRVNERLGGALGSKSPVHPNDHCNLSQSSNDVFPSAMHIAAVEQLQCLLIPSLQRLQKTLSDKSQAWADIIKIGRTHLQDATPLSLGQEFSGYATQVQLSIERLQDSLKRLYPLAQGGTAVGTGLNSSQGFAELFADEVAKFTGHPFTSAANKFEAMAAHDALVELSGVLNCSAVSLNKIANDIRLLSSGPRSGLGELILPANEPGSSIMPGKINPTQCEALTMVCTQVIGNHTTVTLAGAQGHLELNTFKPVMIYNVLQSIRLLGDAAHSFTEHCVAGIQPNAERIAELMEQSLMLVTALVPQIGYDKAAQIAKTAMQNGTTLREEAIAVGLVSAEQFDAIVRPERMIMPK
One may read the kcat/Km as the turnover number divided by the Michaelis constant. Take B1: in the data set “purified protein [5]” (setting [7]), the K0.5 came out at 0.14 ± 0.01 mM and the catalytic efficiency (kcat/Km) stood at 1000 M⁻¹ s⁻¹.

B2: FumI (class I fumarase) (Methylotuvimicrobium alcaliphilum 20Z) (protein)
chain: MTLIRQEDFIQSIFESLQYISYYHPQDFIEAMYRAYQNEQSSAAKDAIAQILINSRMCAEGHRPICQDTGIVVVFLKIGMNVQWDAQISITDMVNEGVRRAFMHPDNILRASILSDPAGKRINTRDNTPAVVYMEVVPGDRVEVEIAAKGGGSEAKSKFAMLNPSDSIVDWVMQTVPTMGAGWCPPGILGIGIGGTAEKAMLLAKQACMESVDIHELIARGPVNALEELRLELYEKVNALGIGAQGMGGLTTVLDIKIKDYPAHAANKPVAMIPNCAATRHIHFELDGSGPAELPVPCLEDWPKIAWEGGNSAKRVNLDTVTKDEIATWRPGETLLLSGTLLTGRDAAHKRIVEMLERGEALPEGVDFTNKFIYYVGPVDPVRDEVVGPAGPTTATRMDKFTEAMLAQTGLIGMIGKAERGPVAIEAIKKHRAVYLMAVGGAAYLVSKAIRKARVVAFEDLGMEAVHEFVIEDMPVTVAVDVDGESIHKSGPKQWQAKIGKIPVVSK
notes: full length, 507 residues, His6-tagged, pET22b(+), E. coli BL21(DE3); homodimer (130 kDa); aerobically purified, stabilised with iron-sulfur mixture; [4Fe-4S]
On to B2, for which the K0.5 was 0.24 ± 0.02 mM in the data set “purified protein [6]” and 0.55 ± 0.02 mM in “purified protein [5]” (setting [8]). Besides, the catalytic efficiency (kcat/Km) in the data set “purified protein [6]” is 750 M⁻¹ s⁻¹; in “purified protein [5]” (setting [8]), 180 M⁻¹ s⁻¹.

Values taken from article PMC10602362, “Interchangeability of class I and II fumarases in an obligate methanotroph Methylotuvimicrobium alcaliphilum 20Z” (PLOS ONE, 2023).
